Target: the molecule itself
Assay: cross-linking + co-IP

B1: endogenous sorcin (MIN6 β-cells) (natural protein, mouse (endogenous in MIN6), UniProt Q6P069 1-198, looked up)
chain: MAYPGHPGAGGGYYPGGYGGAPGGPAFPGQTQDPLYGYFAAVAGQDGQIDADELQRCLTQSGIAGGYKPFNLETCRLMVSMLDRDMSGTMGFNEFKELWAVLNGWRQHFISFDSDRSGTVDPQELQKALTTMGFRLSPQTVNSVAKRYSTSGKITFDDYIACCVKLRALTDSFRRRDSGQQGVVNFSYDDFIQCVMTV
stoichiometry N: 2
